Laboratory results as given in PMC11481913, “Rational design of a flavoenzyme for aerobic nicotine catabolism” (mBio, 2024).

Tested on: CNCCCC(=O)c1cccnc1
Assay: purified protein
Type: biochemical, Pseudomonas putida
Conditions: Tris-HCl pH 8.0, 30 C, O2 as acceptor

Pnao (Pseudomonas putida S16)
Km: 32 ± 1 µM
kcat: 197 ± 1 s⁻¹
kcat/Km: 6.1e+06 M⁻¹ s⁻¹

Pnao (Pseudomonas putida S16; F388A)
Km: 54 ± 1 µM
kcat: 0.75 ± 0.01 s⁻¹
kcat/Km: 14000 M⁻¹ s⁻¹

Pnao (Pseudomonas putida S16; N224G/W220Y)
Km: 150 ± 0 µM
kcat: 135 ± 2 s⁻¹
kcat/Km: 910000 M⁻¹ s⁻¹

Pnao (Pseudomonas putida S16; N224I/W220Y)
Km: 570 ± 50 µM
kcat: 383 ± 19 s⁻¹
kcat/Km: 680000 M⁻¹ s⁻¹

Pnao (Pseudomonas putida S16; R96A)
Km: 56 ± 1 µM
kcat: 0.75 ± 0.06 s⁻¹
kcat/Km: 13000 M⁻¹ s⁻¹

Pnao (Pseudomonas putida S16; R96A/S461A)
Km: 83 ± 12 µM
kcat: 0.39 ± 0.01 s⁻¹
kcat/Km: 4700 M⁻¹ s⁻¹
